Data on three molecules can be found in paper PMC12016525, “The GCN4-Swi6B module mediates low nitrogen-induced cell wall remodeling in Ganoderma lucidum”.

The target of data set [1] is T1, GCN4 (Ganoderma lucidum, UniProt A0A6H0YJ80 1-300). The data set is described as follows: SPR. Particulars: SPR: 10 mM HEPES pH 7.4, 150 mM NaCl, 3 mM EDTA, 0.005% P20, 25 C, SA chip, GCN4 7.81-125 nM; EMSA: Thermo 89880 kit, conditions not stated; in M (unit assumed). On the technique in general: In EMSA bound probe runs differently from free probe, usually more slowly.

For data set [2], the target named is T1, GCN4. The data set is described as follows: EMSA; SPR: 10 mM HEPES pH 7.4, 150 mM NaCl, 3 mM EDTA, 0.005% P20, 25 C, SA chip, GCN4 7.81-125 nM; EMSA: Thermo 89880 kit, conditions not stated. Particulars: protein: recombinant; tags: His; chain copies: 2; blunt.

T1 sequence (A0A6H0YJ80 entry or part of it): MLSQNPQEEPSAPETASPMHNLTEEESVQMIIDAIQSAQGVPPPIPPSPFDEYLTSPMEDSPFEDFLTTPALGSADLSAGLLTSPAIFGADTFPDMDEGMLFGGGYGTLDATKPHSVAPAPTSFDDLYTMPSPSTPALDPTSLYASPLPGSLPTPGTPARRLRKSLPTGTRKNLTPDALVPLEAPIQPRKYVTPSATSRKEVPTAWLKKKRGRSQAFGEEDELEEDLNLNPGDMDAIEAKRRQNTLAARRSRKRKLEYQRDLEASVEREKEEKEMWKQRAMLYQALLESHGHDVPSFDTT

In turn, SWI6 (GBE) SPR probe came in with a Kd (M (unit not given)) in the data set with GCN4 [1] of 8.79e-08.

B1: SWI6 promoter GBE probe (pSwi6-Biotin) (dsDNA)
DNA 1: GAAAGTACCAGGGCACCTGGTGAGTCTCAGTCTCGGTGCCATG
DNA 2: CATGGCACCGAGACTGAGACTCACCAGGTGCCCTGGTACTTTC
As for B1, the binding result with GCN4 [2] is “binds”.

B2: m-SWI6 mutant probe (pSwi6-M-Biotin) (dsDNA)
DNA 1: GAAAGTACCAGGGATAAATTTATTATATAGTCTCGGTGCCATG
DNA 2: CATGGCACCGAGACTATATAATAAATTTATCCCTGGTACTTTC
As for B2, the binding result with GCN4 [2] is on record as “no binding”.
